From PMC6300606

Legend:
[1] = target: TssKSN (shoulder and neck domains of EAEC TssK, residues 1–315) (enteroaggregative Escherichia coli (EAEC)); assay: cryo-EM structure; TssKSN–TssF–TssG complex co-expressed in E. coli and purified (Ni-NTA, Superose 6); 0.12 mg/ml in 20 mM Tris-HCl pH 7.8, 150 mM NaCl; single-particle cryoEM, 3.7 Å overall
[2] = target: TssG (EAEC, residues 64–366) (enteroaggregative Escherichia coli (EAEC)); assay: as above

With “TssKSN (shoulder and neck domains of EAEC TssK, residues 1–315) (domain or fragment)” the stoichiometry N [1] was 3.
“TssF (EAEC, full length) (natural protein)” showed a stoichiometry N (TssF per TssG) [2] of 2.
